US20250059297A1

Tests used:
[1] = target: human TROP2 (hTROP2) on cells (human); assay: cell-based or functional assay
[2] = target: human TROP2 (hTROP2) on cells (human); assay: flow cytometry, NCI-N87 cells (express HER2 and TROP2)
[3] = target: human TROP2 (hTROP2) on cells (human); assay: flow cytometry, NCI-H292 cells (express HER2 and TROP2)

Sequence of human TROP2 (hTROP2) on cells (human) (P09758 whole entry): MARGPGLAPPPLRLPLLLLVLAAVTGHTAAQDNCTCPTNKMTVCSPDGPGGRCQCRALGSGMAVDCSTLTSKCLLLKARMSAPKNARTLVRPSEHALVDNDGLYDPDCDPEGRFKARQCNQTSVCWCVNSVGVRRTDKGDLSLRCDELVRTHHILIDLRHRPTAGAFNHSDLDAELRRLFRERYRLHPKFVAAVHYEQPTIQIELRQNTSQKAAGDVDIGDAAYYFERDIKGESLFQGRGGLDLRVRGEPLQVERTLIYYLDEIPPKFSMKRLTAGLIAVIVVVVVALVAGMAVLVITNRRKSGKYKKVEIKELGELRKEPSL

Row | endocytosis: MFI [1] | endocytosis: Percentage of Positive (%) [1] | endocytosis, direct detection: MFI [1] | endocytosis, direct detection: Percentage of Positive Population [1] | endocytosis, indirect detection: MFI [1] | endocytosis, indirect detection: Percentage of Positive Population [1] | flow cytometry test result (%) [2] | flow cytometry test result (%) [3] | Binder
1 | 21800 | 43.9% |  |  |  |  |  |  | DS-1062 antibody analog (antibody, INN chains, looked up, V domains shown) VH: QVQLVQSGAEVKKPGASVKVSCKASGYTFTTAGMQWVRQAPGQGLEWMGWINTHSGVPKYAEDFKGRVTISADTSTSTAYLQLSSLKSEDTAVYYCARSGFGSSYWYFDVWGQGTLVTVSS VL: DIQMTQSPSSLSASVGDRVTITCKASQDVSTAVAWYQQKPGKAPKLLIYSASYRYTGVPSRFSGSGSGTDFTLTISSLQPEDFAVYYCQQHYITPLTFGQGTKLEIK
2 | 23000 | 51.2% | 16600 | 70.1% | 16100 | 72.2% | 98.7% | 97.4% | Sacituzumab govitecan antibody analog (antibody, INN chains, looked up, V domains shown) VH: QVQLQQSGSELKKPGASVKVSCKASGYTFTNYGMNWVKQAPGQGLKWMGWINTYTGEPTYTDDFKGRFAFSLDTSVSTAYLQISSLKADDTAVYFCARGGFGSSYWYFDVWGQGSLVTVSS VL: DIQLTQSPSSLSASVGDRVSITCKASQDVSIAVAWYQQKPGKAPKLLIYSASYRYTGVPDRFSGSGSGTDFTLTISSLQPEDFAVYYCQQHYITPLTFGAGTKVEIKR
